According to US20160257732A1 (published 2016):
“And” between values parts separate entries of the source, which are not always exact repeats. Equal entries are not always repeated. Where two headings read alike, the source gives them in different places.

Experiments:
Assay in all cases: cell-based or functional assay
[1] = biological target: HA of A/Hong Kong/8/68 (H3N2) (influenza A virus)
[2] = biological target: HA of A/Fort Monmouth/1/47 (H1N1) (influenza A virus)
[3] = biological target: HA of ca A/Sydney/5/97 (H3N2) (influenza A virus)
[4] = biological target: HA of A/New Jersey/8/76 (H1N1) (influenza A virus)
[5] = biological target: HA of A/Victoria/3/75 (H3N2) (influenza A virus)
[6] = biological target: HA of A/Wisconsin/67/05 (H3N2) (influenza A virus)
[7] = biological target: HA of ca A/Vietnam/1203/04 (H5N1) (influenza A virus)
[8] = biological target: HA of ca A/New Caledonia/20/99 (H1N1) (influenza A virus)
[9] = biological target: HA of ca A/Panama/2007/99 (H3N2) (influenza A virus)
[10] = biological target: T1, HA of ca A/chicken/Hong Kong/G9/97 (H9N2) (influenza A virus)
[11] = biological target: HA of ca A/teal/Hong Kong/W312/97 (H6N1) (influenza A virus)
[12] = biological target: T2, HA of ca A/Brit. Columbia/CN-6/04 (H7N3-LP) (influenza A virus)
[13] = biological target: HA of ca A/Beijing/262/95 (H1N1) (influenza A virus)
[14] = biological target: HA of ca A/Hong Kong/213/03 (H5N1) (influenza A virus)
[15] = biological target: HA of ca A/Texas/36/91 (H1N1) (influenza A virus)
[16] = biological target: HA of ca A/Perth/16/09 (H3N2) (influenza A virus)
[17] = biological target: HA of A/Wyoming/03/03 (H3N2) (influenza A virus)
[18] = biological target: HA of A/Kawasaki/9/86 (H1N1) (influenza A virus)
[19] = biological target: HA of ca A/swine/Missouri/06 (H2N3) (influenza A virus)
[20] = biological target: HA of ca A/Netherlands/219/03 (H7N7) (influenza A virus)
[21] = biological target: HA of ca A/mallard/Alberta/89/85 (H6N2) (influenza A virus)
[22] = biological target: HA of A/Hong Kong/8/68 (H3N2) (influenza A virus); remark: listed apart in the source
[23] = biological target: HA of A/Fort Monmouth/1/47 (H1N1) (influenza A virus); remark: listed apart in the source
[24] = biological target: HA of ca A/Sydney/5/97 (H3N2) (influenza A virus); remark: listed apart in the source
[25] = biological target: HA of A/Victoria/361/11 (H3N2) (influenza A virus)
[26] = biological target: HA of A/New Jersey/8/76 (H1N1) (influenza A virus); remark: listed apart in the source
[27] = biological target: HA of A/Victoria/3/75 (H3N2) (influenza A virus); remark: listed apart in the source
[28] = biological target: HA of A/Wisconsin/67/05 (H3N2) (influenza A virus); remark: listed apart in the source
[29] = biological target: HA of ca A/Vietnam/1203/04 (H5N1) (influenza A virus); remark: listed apart in the source
[30] = biological target: HA of ca A/New Caledonia/20/99 (H1N1) (influenza A virus); remark: listed apart in the source
[31] = biological target: HA of ca A/Panama/2007/99 (H3N2) (influenza A virus); remark: listed apart in the source
[32] = biological target: T1, HA of ca A/chicken/Hong Kong/G9/97 …; remark: listed apart in the source
[33] = biological target: HA of ca A/teal/Hong Kong/W312/97 (H6N1) (influenza A virus); remark: listed apart in the source
[34] = biological target: T2, HA of ca A/Brit. Columbia/CN-6/04 …; remark: listed apart in the source
[35] = biological target: HA of ca A/Beijing/262/95 (H1N1) (influenza A virus); remark: listed apart in the source
[36] = biological target: HA of ca A/Hong Kong/213/03 (H5N1) (influenza A virus); remark: listed apart in the source
[37] = biological target: HA of ca A/Japan/57 (H2N2) (influenza A virus)
[38] = biological target: HA of ca A/Texas/36/91 (H1N1) (influenza A virus); remark: listed apart in the source
[39] = biological target: HA of ca A/Perth/16/09 (H3N2) (influenza A virus); remark: listed apart in the source
[40] = biological target: HA of A/Kawasaki/9/86 (H1N1) (influenza A virus); remark: listed apart in the source
HA of virus H1-BS10 = biological target: HA of virus H1-BS10
[41] = biological target: HA of ca A/swine/Missouri/06 (H2N3) (influenza A virus); remark: listed apart in the source
[42] = biological target: HA of ca A/Netherlands/219/03 (H7N7) (influenza A virus); remark: listed apart in the source
[43] = biological target: HA of ca A/Anhui/1/13 (H7N9) (influenza A virus)
[44] = biological target: HA of swine-origin A/Minnesota/11/2010 H3N2 virus (influenza A virus)

B1: Antibody 3 (antibody, V domains shown)
VH: QVQLQESGPGLVKPSQTLSLTCAISGDSVSSNNAVWNWIRQSPSRGLEWLGRTYYRSKWYNDYAESVKSRITVNPDTSKNQFSLHLKSVTPEDTAVFYCVRSGHITVFGVNVDAFDMWGQGTMVTVSS
VL: DIQMTQSPSSLSASVGDRVTITCRTSQSLSSYLHWYQQKPGKAPKLLIYAASSLQSGVPSRFSGSGSGTDFTLTISSLQPEDFATYYCQQSRTFGQGTKVEIK
Neutralization IC50, H3-HK68 [1]: 0.68 µg/mL | Neutralization IC50, H1-FM47 [2]: 0.92 µg/mL | Neutralization IC50, H3-Syd97 [3]: 3.75 µg/mL | Neutralization IC50, H1-NJ76 [4]: 1.41 µg/mL | Neutralization IC50, H3-Vic75 [5]: 0.75 µg/mL | Neutralization IC50, H3-WI05 [6]: 2.44 µg/mL | Neutralization IC50, H5-VM04 [7]: 2.11 µg/mL | Neutralization IC50, H1-Ncal99 [8]: 0.79 µg/mL | Neutralization IC50, H3-Pa99 [9]: 17.7 µg/mL | Neutralization IC50, H9-HK97 [10]: 1.79 µg/mL | Neutralization IC50, H6-HK97 [11]: 1.77 µg/mL | Neutralization IC50, H7-BC04 [12]: 4.72 µg/mL | Neutralization IC50, H1-BJ95 [13]: 3.41 µg/mL | Neutralization IC50, H5-HK03 [14]: 4.64 µg/mL | Neutralization IC50, H1-TX91 [15]: 0.6 µg/mL | Neutralization IC50, H3-Perth09 [16]: 1.49 µg/mL | Neutralization IC50, H3-Wy03 [17]: 0.63 µg/mL | Neutralization IC50, H1-Kaw86 [18]: 0.58 µg/mL | Neutralization IC50, H2-MO06 [19]: 2.27 µg/mL | Neutralization IC50, H7-NLD03 [20]: 4.78 µg/mL | Neutralization IC50, H6-AB85 [21]: 0.69 µg/mL | Neutralization IC50, H3-HK68 [22]: 1.37 µg/mL | Neutralization IC50, H1-FM47 [23]: 1.04 µg/mL | Neutralization IC50, H3-Syd97 [24]: 6.5 µg/mL | Neutralization IC50, H3-VC11 [25]: 3.4 µg/mL | Neutralization IC50, H1-NJ76 [26]: 0.57 µg/mL | Neutralization IC50, H3-Vic75 [27]: 1.12 µg/mL | Neutralization IC50, H3-WI05 [28]: 2.62 µg/mL | Neutralization IC50, H5-VM04 [29]: 1.19 µg/mL | Neutralization IC50, H1-Ncal99 [30]: 1.16 µg/mL | Neutralization IC50, H3-Pa99 [31]: 9 µg/mL | Neutralization IC50, H9-HK97 [32]: 1.18 µg/mL | Neutralization IC50, H6-HK97 [33]: 0.63 µg/mL | Neutralization IC50, H7-BC04 [34]: 2.95 µg/mL | Neutralization IC50, H1-BJ95 [35]: 2.98 µg/mL | Neutralization IC50, H5-HK03 [36]: 0.71 µg/mL | Neutralization IC50, H2-JP57 [37]: 0.46 µg/mL | Neutralization IC50, H1-TX91 [38]: 0.92 µg/mL | Neutralization IC50, H3-Perth09 [39]: 1.3 µg/mL | Neutralization IC50, H1-Kaw86 [40]: 1.01 µg/mL | Neutralization IC50, H1-BS10 (HA of virus H1-BS10): 2.16 µg/mL | Neutralization IC50, H2-MO06 [41]: 1.09 µg/mL | Neutralization IC50, H7-NLD03 [42]: 4.74 µg/mL | Neutralization IC50, H7-ANU13 [43]: 4.26 µg/mL | Neutralizing activity IC50, swine-origin A/Minnesota/11/2010 [44]: 2.2 µg/mL and 4.2 µg/mL
